Measured values as given in paper PMC8594078.
Where two headings read alike, the source gives them in different places.

How the values were obtained:
[1] = target: T1, biotinylated human ACE2 (Acrobiosystems EP-105 kit) (Homo sapiens, UniProt Q9BYF1 18-740); assay: competition ELISA
[2] = target: T1, biotinylated human ACE2 (Acrobiosystems …); assay: competition ELISA; remark: listed apart in the source

T1 sequence (Q9BYF1 18-740): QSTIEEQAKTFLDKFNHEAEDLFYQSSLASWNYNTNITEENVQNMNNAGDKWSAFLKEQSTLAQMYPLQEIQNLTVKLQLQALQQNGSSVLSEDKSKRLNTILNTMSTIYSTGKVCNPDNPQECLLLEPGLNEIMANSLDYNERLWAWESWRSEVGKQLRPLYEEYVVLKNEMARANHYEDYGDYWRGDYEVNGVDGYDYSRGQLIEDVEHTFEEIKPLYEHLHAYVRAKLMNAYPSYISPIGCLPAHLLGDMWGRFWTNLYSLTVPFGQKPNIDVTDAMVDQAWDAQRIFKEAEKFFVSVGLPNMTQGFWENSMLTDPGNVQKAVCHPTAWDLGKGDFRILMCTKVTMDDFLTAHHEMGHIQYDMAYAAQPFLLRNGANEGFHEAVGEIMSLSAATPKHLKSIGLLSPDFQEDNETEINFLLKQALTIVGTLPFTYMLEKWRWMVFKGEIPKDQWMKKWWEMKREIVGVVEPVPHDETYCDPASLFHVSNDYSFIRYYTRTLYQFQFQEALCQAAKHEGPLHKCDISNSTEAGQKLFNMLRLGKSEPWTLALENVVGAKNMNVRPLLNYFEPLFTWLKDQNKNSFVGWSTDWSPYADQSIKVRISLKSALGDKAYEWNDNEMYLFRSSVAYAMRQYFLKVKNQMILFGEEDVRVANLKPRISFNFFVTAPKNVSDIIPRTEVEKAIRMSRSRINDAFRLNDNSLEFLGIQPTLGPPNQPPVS

Binder	IC50 [1] [nM]	IC50 [2] [nM]
Apt 6 (ssDNA) DNA: ATAGTCCCTGGCGTGCTTGACAGCAACACGAACACTGAACGTTCTTAACAAGCCTGGCAGAGCAGGTACGGTGTCA	35	33
Apt 14 (ssDNA) DNA: ATAGTCCCTGGCGTGCTTCCGCGAGAGTTCGACATTCCCGAAAGTACGACGAAAGTCCAGAGCAGGTACGGTGTCA	132	47
